Laboratory results published in patent US20100291682, “SYSTEM FOR TRANSPOSING HYPERACTIVE RECOMBINANT DERIVATIVES OF MOS-1 TRANSPOSON” (published 2010).
Changes are numbered by the printed parent chain.

Columns and labels:
Test in all cases: cell_activity; 3T40 transposition in E. coli T5 vs 3T3/WT
Settings in all cases: chain copies: 2
Mos-1 transposase FQ = target: T1, Mos-1 transposase FQ (Drosophila mauritiana, UniProt Q7JQ07 SEQ:1-345, F53Y,Q91R)
T1 sequence: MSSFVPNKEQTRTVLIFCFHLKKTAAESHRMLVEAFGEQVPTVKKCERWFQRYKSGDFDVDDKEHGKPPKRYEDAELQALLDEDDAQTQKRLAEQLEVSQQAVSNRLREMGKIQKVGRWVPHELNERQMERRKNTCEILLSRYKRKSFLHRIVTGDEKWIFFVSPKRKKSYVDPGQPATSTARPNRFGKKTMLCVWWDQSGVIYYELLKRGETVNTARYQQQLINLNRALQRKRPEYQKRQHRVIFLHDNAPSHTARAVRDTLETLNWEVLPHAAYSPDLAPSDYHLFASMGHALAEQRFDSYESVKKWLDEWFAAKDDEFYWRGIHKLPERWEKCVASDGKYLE
Procedure: (§1) Escherichia coli JM109 bacteria were co-transformed with the pBC 3T3 plasmid (comprising a transposition reporter 2 ITR 3′ mariner-like element and the chloramphenicol resistance gene) and with the inducible vector encoding for the transposase (pKK-Tnp or pMal-Tnp) comprising the ampicillin resistance gene. The bacteria selection was performed on ampicillin (100 μg/ml) and chloramphenicol in order to verify the presence of the two plasmids.
(§2) The JM109 bacteria containing both the pBC 3T3 plasmid and the pKK-Tnp (or pMalC2X-Tnp) plasmid were placed in culture for 1 hr at 37° C. in 250 μl of LB. This inoculum was then poured into 5 ml of LB supplemented with 1 mM IPTG. The culture was titrated on LB plates (100 μl of a 1/1000 dilution) and on LB-Tet plates (12.5 μg/ml) (250 μl of the non-diluted culture). The culture induced by IPTG was then cultured for 5 hours at 32° C. (optimal temperature of transposase) under stirring (250 rpm). The bacterial suspension was then titrated on LB plates (100 μl of a 1/250,000 dilution) and on LB-tet plates (100 μl of the undiluted bacterial suspension). The plates were placed at 37° C. overnight. The following day, the colonies were counted on LB and LB-Tet plates, and the transposition frequency (equal to the number of tetracycline bacteria over the number of bacterial per 1 ml of undiluted bacterial suspension) was calculated.
(§3) In order to evaluate the transposition efficiency of systems associating a hyperactive transposase and a pseudo-transposon that is also hyperactive, various combinations were tested in the transposition test in bacteria described in part I, paragraph I-B above.

Mos-1 transposase QY = target: T2, Mos-1 transposase QY (Drosophila mauritiana, UniProt Q7JQ07 SEQ:1-345, Q91R,Y237C)
T2 sequence: T1 sequence with Y53F, Y237C
Procedure: as §1, §2, §3

Mos-1 transposase FT = target: T3, Mos-1 transposase FT (Drosophila mauritiana, UniProt Q7JQ07 SEQ:1-345, F53Y,T216A)
T3 sequence: T1 sequence with R91Q, T216A
Procedure: as §1, §2, §3

Mos-1 transposase TY = target: T4, Mos-1 transposase TY (Drosophila mauritiana, UniProt Q7JQ07 SEQ:1-345, T216A,Y237C)
T4 sequence: T1 sequence with Y53F, R91Q, T216A, Y237C
Procedure: as §1, §2, §3

Mos-1 transposase ET = target: T5, Mos-1 transposase ET (Drosophila mauritiana, UniProt Q7JQ07 SEQ:1-345, E137K,T216A)
T5 sequence: T1 sequence with Y53F, R91Q, E137K, T216A
Procedure: as §1, §2, §3

B1: ITR40 (dsDNA)
DNA 1: TCAGGTGTACAAGTATGTAATGTCGTTA
DNA 2: TAACGACATTACATACTTGTACACCTGA
Mos-1 transposase FQ
  activity: 2.5 fold
Mos-1 transposase QY
  activity: 1.3 fold
Mos-1 transposase FT
  activity: 2 fold
Mos-1 transposase TY
  activity: 36.2 fold
Mos-1 transposase ET
  activity: 8.9 fold
